In article PMC10235961:

Target: OleTPRN, CYP152 decarboxylase from Rothia nassimurium forming terminal (poly-unsaturated) olefins, wild type (Rothia nassimurium)
Experiment: SEC

Q: Which stoichiometry N does the source give for “OleTPRN, CYP152 decarboxylase from Rothia nassimurium forming terminal (poly-unsaturated) olefins, wild type (enzyme)” here?
A: 2
